# Assay results from article PMC9527358, “Oligomeric state of the aspartate:alanine transporter from Tetragenococcus halophilus” (Journal of Biochemistry, 2022).
# B1: aspartate:alanine antiporter (AspT) of Tetragenococcus halophilus, wild type, histidine-tagged (natural protein, UniProt Q8L3K8 1-543, looked up)
# chain: MNAIGNFLVGTPVFTIFICLALGYLLGKLKIGSFTLGATVGVLIVALLIGQLGVFPRDTLLGDIFFDFFMFAIGYRVGPSFISSMKKFGAKIVYATLIFLVSAFIVAYACFKMFHIGPGIAAGIIAGGLTQSAVIGSSLETISKLPISDHLKTLYSNQIPIVYTLTYVFGTIGVLIFLRDIMPKLMHIDLKKQAVKTAKELDMIPVPVIVASTHFYTINDGSSLIGQTLGTVNTKFAKGLVAAGLNDSADMASVINAGDVLAISGGIDEIGRAVQEFNLLEVTGKTKAYVSKQVVLKKNFSADVLKNAQDKGVLVATLAGDVMDPAQFSTLKPAESVTLVGQKDAVSEVQSQLGRLRAAENIINYSWFALGIALSAALGIVGTKVSGVPIALGGGTASLIVGLVQSIYRDKHAHMDTIPDSLLEFFQSIGLNLFIATVGLSAAKTFISAIQSMGISVLLIGAVISILPHIITFVICYYLMKMEPISIIGAQTGADTLSAALNDVSERVGSDASPFFAAAVAPAYAIGNIFLTLMGPIFIVLLS
# notes: aspartate:alanine antiporter AspT, Tetragenococcus halophilus, 543 amino-acid residues (57.2 kDa); expressed from the asp operon in pTrc99A (pTrcAspD/T-His); also called AspT WT; WT; source: Ni Sepharose Excel and SEC for the comparison with L60C; not shown: His6, internal (in loop 5), kept
# Assays:
# [1] = molecular target: AspT L60C mutant (three endogenous Cys replaced with alanine, then leucine 60 replaced with Cys) (Tetragenococcus halophilus) (UniProt Q8L3K8); assay: cross-linking; spontaneous inter-molecular disulphide; purified protein (0.5 ug) in SDS sample buffer without 2-mercaptoethanol (non-reducing) or with 5% (reducing), 37°C 30 min; SDS-PAGE (Coomassie) and western blot with a His-tag antibody
# [2] = molecular target: the molecule itself; assay: SEC-MALS; purified AspT in DDM (2.4 mg/ml, dialysed); Superdex 200 Increase 10/300 GL; 20 mM HEPES-NaOH pH 7.0, 500 mM NaCl, 200 mM Asp-KOH, 0.01% DDM, 20% glycerol; 0.8 ml/min; MALS, RI and UV detectors
molecule,measurement,setting,value
"AspT L60C mutant (three endogenous Cys replaced with alanine, then leucine 60 replaced with Cys) (from UniProt Q8L3K8 1-543) (natural protein)",stoichiometry N,[1],2
B1,stoichiometry N,[2],2
